# Test results from patent US20090291088A1 (Biogen, published 2009).
# B1: M13-C06.G4.P.agly (antibody, human IgG4 S228P, kappa, V domains shown)
# VH: EVQLLESGGGLVQPGGSLRLSCAASGFTFSIYRMQWVRQAPGKGLEWVSGISPSGGTTWYADSVKGRFTISRDNSKNTLYLQMNSLRAEDTAVYYCARWSGGSGYAFDIWGQGTMVTVSS
# VL: DIQMTQSPLSLSASVGDRVTITCQASRDIRNYLNWYQQKPGKAPKLLIYDASSLQTGVPSRFGGSGSGTDFSFTIGSLQPEDIATYYCQQFDSLPHTFGQGTKLEIKR
# notes: Full-length human aglycosylated IgG4.P (S228P/T299A, EU), kappa; Places that say only 'M13-C06 antibody' were assigned to this version; Labelled with Eu chelate or biotin in some assays; also called M13-C06_Ab; Eu-C06
# B2: M14-C03 Fab (Fab, V domains shown)
# VH: EVQLLESGGGLVQPGGSLRLSCAASGFTFSKYMMSWVRQAPGKGLEWVSYISPSGGLTWYADSVKGRFTISRDNSKNTLYLQMNSLRAEDTAVYYCARDGARGYGMDVWGQGTTVTVSS
# VL: DIQMTQSPATLSLSPGERATLSCRASQSVSSYLAWYQQKPGQAPRLLIYDASNRATGIPARFSGSGSGTDFTLTISSLEPEDFAVYYCQQRSNWPPEVTFGPGTKVDIK
# notes: Human phage Fab, kappa
# What was measured:
# [1] = target: T1, human INSR(28-956)-His10 (human, UniProt P06213 28-956); experiment: SPR, INSR over immobilised antibody
# T1 construct: range 28-956; Bought (R&D Systems 1544-IR); also called rh-INSR; soluble insulin receptor
# [2] = target: T2, human IGF-1R(1-903)-Fc (human, UniProt P08069 31-933); experiment: ELISA, plate coated with soluble IGF-1 receptor Fc fusion protein, detection with anti-human kappa-HRP
# T2 construct: Made by Biogen Idec; Multimerises through IGF-1R and Fc; also called hIGF-1R-Fc; IGF-1R-Fc; not shown: C-terminal human IgG1-Fc tag
# Method: The plate was washed with phosphate-buffered saline (PBS, Irvine Scientific, Cat#9240), pH 7.4 plus 0.025% Tween 20 in the Skan Washer 300 (Skatron Instruments), blocked with buffer containing 1% nonfat milk, 0.05% Tween 20 in PBS, pH 7.4, and then incubated at room temperature for 1 hour. After incubation plate was washed with PBS plus 0.025% Tween 20 in the Skan Washer 300. […] Following a one hour incubation at room temperature, plate was washed with PBS plus 0.025% Tween 20 in the Skan Washer 300. […] Plate incubated for 1 hour at room temperature was washed with PBS plus 0.025% Tween 20 in the Skan Washer 300. […] The absorbance was measured at 450 nm, background 540 nm for TMB using the Molecular Devices plate reader. Data was analyzed using the SOFTMAX PRO software package version 4.3 LS (Molecular Devices Corp.).
# [3] = target: T3, rat IGF-1R expressed on immune cells (rat, UniProt P24062 31-1370); experiment: FACS on granulocytes, monocytes, lymphocytes
# T3 construct: whole, on cells
# [4] = target: T2, human IGF-1R(1-903)-Fc; experiment: competition ELISA: biotinylated hIGF-1R-Fc on streptavidin plate, 320 nM human IGF-2 His, detection with anti-His-HRP; blocked ligand human IGF-2 His
# [5] = target: T4, human IGF-1R(1-902)-His10 (human, UniProt P08069 31-932); experiment: SPR, antibody over IGF-1R-10His captured by anti-His, 1:1 model, approximate
# T4 construct: Cy5-labelled in tr-FRET; also called hIGF-1R-His10; IGF-1R-His
# Method: All surface plasmon resonance (SPR) experiments were performed on a Biacore 3000 set to 25° C. using HBS-EP (Biacore, Cat. No. BR-1001-88) as the running buffer. A biotin-labeled anti-HisTag antibody (biotin-PENTA-His, Qiagen Cat. No. 34440) was immobilized to saturation on a Biacore SA chip (Cat. No. BR-1000-32) surface by injection at 500 nM in HBS-EP buffer. […] Subsequent to IGF-1R injections, flow rates were increased to 20 μL/min. A second, 130 μL injection of anti-IGF-1R antibody or Fab was performed to investigate interactions with the receptor. Each antibody and Fab was serially diluted from 64 nM to 0.5 nM to obtain concentration dependent kinetic binding curves. Each injection series was regenerated using 3×10 μL injections of 10 mM Acetate, pH 4.0, at 20 μL/min. Each curve was double referenced using (1) data obtained from a streptavidin surface devoid of IGF-1R and (2) data from a primary injection of IGF-1R followed by a secondary injection of HBS-EP buffer. […]
# (§1) The rates at which the antibodies accumulate on the IGF-1R coated surface when applied at various concentrations as well as the rates at which they dissociated during applications of pure buffer were investigated by fitting the data to a 1:1 binding model. Approximate kinetic rate constants and equilibrium dissociation constant were calculated (Table 14).
# [6] = target: T5, human IGF-1R expressed on cells (human, UniProt P08069 31-1367); experiment: cell-based or functional assay
# [7] = target: T6, IGF-1R (soluble, construct not stated) (human, UniProt P08069 31-932, limits assumed); experiment: ligand blocking, competitor IGF-2; IGF-2 as the blocked ligand
# T6 construct: whole entry named; also called Solube IGF-1R Protein; soluble recombinant human IGF-1R
# [8] = target: T6, IGF-1R (soluble, construct not stated …); experiment: binding to soluble IGF-1R protein
# [9] = target: T5, human IGF-1R expressed on cells; experiment: binding to tumor cells
# [10] = target: T4, human IGF-1R(1-902)-His10; experiment: SPR, antibody over captured IGF-1R-10His
# Method: (§2) All surface plasmon resonance (SPR) experiments were performed on a Biacore 3000 set to 25° C. using HBS-EP (Biacore, Cat. No. BR-1001-88) as the running buffer. A biotin-labeled anti-HisTag antibody (biotin-PENTA-His, Qiagen Cat. No. 34440) was immobilized to saturation on a Biacore SA chip (Cat. No. BR-1000-32) surface by injection at 500 nM in HBS-EP buffer. […] Subsequent to IGF-1R injections, flow rates were increased to 20 μL/min. A second, 130 μL injection of anti-IGF-1R antibody or Fab was performed to investigate interactions with the receptor. Each antibody and Fab was serially diluted from 64 nM to 0.5 nM to obtain concentration dependent kinetic binding curves. Each injection series was regenerated using 3×10 μL injections of 10 mM Acetate, pH 4.0, at 20 μL/min. Each curve was double referenced using (1) data obtained from a streptavidin surface devoid of IGF-1R and (2) data from a primary injection of IGF-1R followed by a secondary injection of HBS-EP buffer. The concentration series for each antibody and Fab was fit to the 1:1 binding model provided within the BiaEvaluation software of the manufacturer.
# as §1
# [11] = target: T2, human IGF-1R(1-903)-Fc; experiment: ELISA on hIGF-1R-Fc, competitor biotinylated M13-C06
# [12] = target: T6, IGF-1R (soluble, construct not stated …); experiment: ligand blocking, competitor IGF-1; IGF-1 as the blocked ligand
# [13] = target: cynomolgus IGF-1R expressed on cells (cynomolgus macaque, UniProt G7P9I7 31-1343); experiment: binding to CHO transfectants
# [14] = target: T7, Rhesus IGF-1R expressed on CHO cells (rhesus monkey, UniProt I2CWY3 31-1367); experiment: binding to CHO transfectants
# T7 construct: whole, on cells; also called Rhesus IGF-1R/CHO
# [15] = target: T2, human IGF-1R(1-903)-Fc; experiment: competition ELISA: biotinylated hIGF-1R-Fc on streptavidin plate, 320 nM human IGF-1 His, detection with anti-His-HRP; blocked ligand human IGF-1 His
# Method: hIGF-1R-Fc was biotinylated using EZ-Link Sulfo-NHS-LC-Biotin according to the protocol provided by the manufacturer (Pierce Cat. No. 21335). Biotinylated human IGF-1R-Fc at 5 μg/ml was added to the wells of SigmaScreen streptavidin-coated 96-well plates (Sigma, Cat. No. M5432-5EA; Sigma-Aldrich Corp. (St. Louis, Mo., USA)) at 100 μL/well and incubated overnight at 2-8° C. The plates were then washed four times with 200 μL/well PBST. […] The dilutions were added to the plates in duplicate at 100 μL/well and the plates were incubated at RT for 1 hour. The plates were then washed four times with 200 μL/well PBST. An HRP-conjugated anti-Histag antibody (Penta-His HRP Conjugate, QIAGEN, Cat. No. 1014992) was diluted 1:1000 in PBST and added to plates at 100 μL/well, and the plates were incubated at RT for one hour. The plates were then washed four times with 200 μL/well PBST. SureBlue Reserve TMB Microwell Peroxidase Substrate (KPL, Cat. No. 53-00-01) was added to plates at 100 μL/well followed by 1% phosphoric acid at 100 μL/well once the desired reaction was observed. The absorbance of each well was determined at 450 nm, and the results were normalized and plotted against the log of antibody concentration.
# [16] = target: T8, human insulin receptor expressed in mammalian cells (UniProt P06213 28-1382, limits assumed); experiment: immunoprecipitation from IR CHO lysate, western blot with mouse anti-human IR
# T8 construct: whole, on cells; Cells were solubilised with Triton X-100 before immunoprecipitation; also called INSR; IR
# Method: Recombinant IGF-1R and insulin receptor (IR) were independently expressed in mammalian cells (3T3 or CHO). […] Antibody/antigen complexes were released from the beads by acid treatment, applied to Tris-Glycine SDS-PAGE gels and blotted to nitrocellulose membranes. Detection was performed using mouse anti-human IR (FIG. 24A) or mouse anti-human IGF-1R (FIG. 24B) and goat α-mouse IgG.
# [17] = target: T9, hIGF-1R-Fc mutant SD108 (H480E) (human, UniProt P08069 31-933); experiment: SPR, Fab over captured mutant
# T9 construct: not shown: C-terminal human IgG1-Fc tag
# [18] = target: T10, hIGF-1R-Fc mutant SD015 (H464E) (human, UniProt P08069 31-933); experiment: SPR, Fab over captured mutant
# T10 construct: not shown: C-terminal human IgG1-Fc tag
# [19] = target: T11, hIGF-1R-Fc mutant SD110 (E533H) (human, UniProt P08069 31-933); experiment: SPR, Fab over captured mutant
# T11 construct: not shown: C-terminal human IgG1-Fc tag
# [20] = target: T12, hIGF-1R-Fc mutant SD103 (D461A, V462T) (human, UniProt P08069 31-933); experiment: SPR, Fab over captured mutant
# T12 construct: not shown: C-terminal human IgG1-Fc tag
# [21] = target: T13, hIGF-1R-Fc mutant SD113 (E570A, I571T) (human, UniProt P08069 31-933); experiment: SPR, Fab over captured mutant
# T13 construct: not shown: C-terminal human IgG1-Fc tag
# [22] = target: T14, hIGF-1R-Fc mutant SD102 (E459A, S460A) (human, UniProt P08069 31-933); experiment: SPR, Fab over captured mutant
# T14 construct: not shown: C-terminal human IgG1-Fc tag
# [23] = target: T15, hIGF-1R-Fc mutant SD104 (H464A) (human, UniProt P08069 31-933); experiment: SPR, Fab over captured mutant
# T15 construct: not shown: C-terminal human IgG1-Fc tag
# [24] = target: T16, hIGF-1R-Fc mutant SD109 (Y482A, R483W) (human, UniProt P08069 31-933); experiment: SPR, Fab over captured mutant
# T16 construct: not shown: C-terminal human IgG1-Fc tag
# [25] = target: T5, human IGF-1R expressed on cells; experiment: flow cytometry, MCF-7 cells
# Method: The ability of Fabs to bind to the wild type IGF-1R was determined by flowcytometry using MCF-7 tumor cell line.
# MCF-7 cells (Human Breast Adenocarcinoma from NCI) were split 24 hours prior to the setup of the assay to obtain 70% confluent monolayer. Routinely, MCF-7 cell line was maintained within 20 passages. Cells were lifted with cell dissociation buffer (Gibco catalog #13151-014), counted, washed and adjusted to 1×10⁶ cells/ml and one ml of cells were then added to each tube (12×75 mm tube Falcon catalog# 352054). Cells were pelleted and supernatant removed by centrifugation at 1200 rpm for 5 min and 100 μl of diluted antibodies were then added to the cell pellet. Purified Fabs were tested at a starting concentration of either 210 or 60 μg/ml with 1:3 dilutions in FACS buffer, down to 0.001 μg/ml. FACS buffer used throughout the assay was PBS (without Ca++/Mg++) containing 1% BSA (Sigma catalog# A-7906; Sigma-Aldrich Corp. (St. Louis, Mo., USA)) and 0.1% Sodium Azide (Sigma catalog #S2002). […] Samples were allowed to incubate on ice for 1 hour and 15 minutes then were washed with 2 ml FACS buffer and centrifuged at 1200 rpm for 5 minutes at 4° C. The supernatant was aspirated and 100 μl of the secondary detection antibody was added to each corresponding tube in FACS buffer. Samples were then incubated for 30 minutes on ice, in the dark. Cells were washed as described above, then, re-suspended in […] FACS buffer per tube/sample.
# Cells were stained for live cell determination with Propidium Iodide staining solution (PI for dead cell exclusion; BD Pharmingen catalog# 51-66211E or 556463; use at 1:500 final in FACS buffer). Samples were run on the FACSCalibur instrument (Becton Dickinson) with 10,000 live events collected per sample.
# [26] = target: T4, human IGF-1R(1-902)-His10; experiment: SPR, Fab over captured IGF-1R-10His
# Method: as §2
# To obtain discrete affinities, Fab fragments of each antibody were generated using papain digestion as described above.
# T3 sequence (P24062 31-1370): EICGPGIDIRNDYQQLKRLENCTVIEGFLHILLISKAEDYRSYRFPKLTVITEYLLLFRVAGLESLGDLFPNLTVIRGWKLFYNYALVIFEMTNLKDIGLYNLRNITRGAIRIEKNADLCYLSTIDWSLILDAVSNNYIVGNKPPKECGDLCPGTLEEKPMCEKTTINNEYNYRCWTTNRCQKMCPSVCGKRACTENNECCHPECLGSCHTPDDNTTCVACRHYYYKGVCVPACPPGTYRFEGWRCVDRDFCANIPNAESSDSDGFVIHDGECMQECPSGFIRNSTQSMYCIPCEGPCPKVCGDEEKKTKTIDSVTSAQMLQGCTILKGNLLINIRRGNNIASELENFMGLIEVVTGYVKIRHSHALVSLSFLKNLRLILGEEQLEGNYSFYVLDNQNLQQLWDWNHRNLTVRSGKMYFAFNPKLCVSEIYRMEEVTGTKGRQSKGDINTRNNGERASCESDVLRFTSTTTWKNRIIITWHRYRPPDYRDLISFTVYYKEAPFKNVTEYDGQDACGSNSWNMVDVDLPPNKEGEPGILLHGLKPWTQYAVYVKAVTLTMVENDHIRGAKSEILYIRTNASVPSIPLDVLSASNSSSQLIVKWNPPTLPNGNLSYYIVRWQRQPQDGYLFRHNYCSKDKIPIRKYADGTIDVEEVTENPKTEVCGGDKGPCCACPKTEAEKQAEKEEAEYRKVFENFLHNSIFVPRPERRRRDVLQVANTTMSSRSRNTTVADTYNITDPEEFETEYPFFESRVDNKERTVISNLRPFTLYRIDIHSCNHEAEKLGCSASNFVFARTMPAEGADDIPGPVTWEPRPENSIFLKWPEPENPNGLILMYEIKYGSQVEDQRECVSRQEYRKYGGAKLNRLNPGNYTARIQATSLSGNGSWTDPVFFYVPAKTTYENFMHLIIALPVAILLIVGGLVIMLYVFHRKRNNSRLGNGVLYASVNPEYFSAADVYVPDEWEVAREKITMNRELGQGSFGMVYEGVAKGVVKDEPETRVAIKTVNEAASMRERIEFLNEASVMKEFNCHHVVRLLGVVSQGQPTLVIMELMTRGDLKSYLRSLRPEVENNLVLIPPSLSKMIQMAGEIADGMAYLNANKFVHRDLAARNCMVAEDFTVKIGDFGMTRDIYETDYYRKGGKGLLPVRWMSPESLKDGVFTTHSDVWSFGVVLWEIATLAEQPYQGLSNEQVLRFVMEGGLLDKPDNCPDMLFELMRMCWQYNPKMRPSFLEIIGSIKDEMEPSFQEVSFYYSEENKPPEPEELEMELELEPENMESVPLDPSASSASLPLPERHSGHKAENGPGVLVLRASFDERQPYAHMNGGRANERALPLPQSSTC
# T7 sequence (I2CWY3 entry or part of it): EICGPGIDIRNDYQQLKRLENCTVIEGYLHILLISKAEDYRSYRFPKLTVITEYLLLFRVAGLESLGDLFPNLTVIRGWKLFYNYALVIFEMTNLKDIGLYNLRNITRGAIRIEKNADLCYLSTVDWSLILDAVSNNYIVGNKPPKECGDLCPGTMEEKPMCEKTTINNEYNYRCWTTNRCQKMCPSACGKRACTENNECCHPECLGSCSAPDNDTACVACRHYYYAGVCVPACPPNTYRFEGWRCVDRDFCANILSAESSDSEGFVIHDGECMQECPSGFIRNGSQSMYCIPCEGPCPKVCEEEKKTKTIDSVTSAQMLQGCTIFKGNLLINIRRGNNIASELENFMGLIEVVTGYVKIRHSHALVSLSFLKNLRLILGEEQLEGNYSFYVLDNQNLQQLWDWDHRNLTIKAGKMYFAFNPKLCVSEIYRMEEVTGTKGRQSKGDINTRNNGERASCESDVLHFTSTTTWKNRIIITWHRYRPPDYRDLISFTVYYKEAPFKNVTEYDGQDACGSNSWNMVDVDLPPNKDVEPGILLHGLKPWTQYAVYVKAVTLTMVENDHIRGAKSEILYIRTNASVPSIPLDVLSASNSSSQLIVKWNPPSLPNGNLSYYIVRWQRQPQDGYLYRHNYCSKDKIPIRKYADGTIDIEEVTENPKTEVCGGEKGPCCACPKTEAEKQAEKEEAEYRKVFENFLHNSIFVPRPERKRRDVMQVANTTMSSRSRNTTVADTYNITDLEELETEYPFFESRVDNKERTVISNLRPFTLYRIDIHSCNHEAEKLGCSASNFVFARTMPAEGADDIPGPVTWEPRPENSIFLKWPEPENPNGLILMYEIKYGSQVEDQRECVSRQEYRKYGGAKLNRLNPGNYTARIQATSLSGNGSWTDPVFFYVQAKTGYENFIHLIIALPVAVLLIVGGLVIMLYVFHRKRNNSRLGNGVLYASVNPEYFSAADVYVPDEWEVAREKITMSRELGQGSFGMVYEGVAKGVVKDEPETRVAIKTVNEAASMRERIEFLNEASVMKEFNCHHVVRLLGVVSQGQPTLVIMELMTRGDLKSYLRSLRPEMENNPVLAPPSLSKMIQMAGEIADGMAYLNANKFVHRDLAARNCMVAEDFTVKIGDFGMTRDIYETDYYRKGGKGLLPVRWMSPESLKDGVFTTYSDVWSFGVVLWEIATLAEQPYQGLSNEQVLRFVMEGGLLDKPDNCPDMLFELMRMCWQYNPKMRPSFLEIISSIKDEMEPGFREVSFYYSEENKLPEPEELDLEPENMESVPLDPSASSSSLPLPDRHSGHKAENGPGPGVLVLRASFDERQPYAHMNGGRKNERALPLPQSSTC
binder,measurement,setting,value
B1,binding result,[1],no binding (tested: 2 µM)
same,EC50 (read off the curve),[2],~40 pM
same,binding result,[3],no binding
same,IC50 (read off the curve),[4],~1000 pM
same,Kd,[5],130 pM
same,inhibition of IGF-1 and IGF-2 mediated IGF-1R receptor phosphorylation (EC50),[6],< 1000 pM
same,IC50,[7],525 pM
same,EC50,[8],42.2 pM
same,EC50,[9],220 pM
same,koff,[10],0.00025 s⁻¹
same,kon,[10],1.8e+06 M⁻¹ s⁻¹
same,percent competition (relative to self-competition),[11],90 to 100%
same,IC50,[12],979 pM
same,EC50,[13],470 pM
same,EC50,[14],270 pM
same,IC50 (read off the curve),[15],~1000 pM
same,binding result,[16],no binding
B2,binding result,[17],no binding (tested: 30 nM)
same,binding result,[18],no binding (tested: 30 nM)
same,binding result,[19],no binding (tested: 30 nM)
same,binding result,[20],no binding (tested: 30 nM)
same,binding result,[21],no binding (tested: 30 nM)
same,binding result,[22],no binding (tested: 30 nM)
same,binding result,[23],no binding (tested: 30 nM)
same,binding result,[24],no binding (tested: 30 nM)
same,EC50,[25],25400 pM
same,Kd,[26],4900 pM
same,koff,[26],0.00094 s⁻¹
same,kon,[26],190000 M⁻¹ s⁻¹
